The values below come from a protein production outcome set (Wang et al. 2014).

This series can be described thus: label from the status in PepcDB records.

For the sequence “MIKVAESRTSWVASVFGLAALYVLGTVTPLEDIDSHLGGVNVTNLLQAIFALLAIFFFNDSVRRLANVPVVRWTYYAPLLSIPVMIASFSLIADKAPTAADFIDTRMDQLATAVYSGTYMFALLFTVLRIIYMLRHNAKGPYATFSAGLMVVAVAVSCHIAYVVLYYFSPWDDFARAIGTWFDRLFYIGLTVTAAGWLILFLSKQLPRLRLWMIDALWLTAMRMRVNADRSRVSPAWDLFNETLENGVYKSLIVLHNYERVNLMEFPESVQGRISHIEAKLDAQT”, the protein production result is recorded as “failed”.
For “MILATYFDGRTSRAQPVRLAVEQGEAVLFDPEGVPVRRAPLSALRVSERVKHAPRLVTFEDGAFCEIADPAEQQALNALLHRTGYREGAVVRAQNSWRLALGALALTLAALVLGYRYGLPWGAKVLAGMVPQRVEAQLGHASLAAFDQHWLEPSKLPQAQQARIRARFAALRAPDATHAYTIAFRDAGKLGANAFALPGGDIIVTDALVRLVGEGDGLMGVLAHEAGHVEYRHGLRQLIQSSAIGATAALLFGDISTILAGVPATMLTLRYSRDYERDADRYASRMLQSNGLSVAAFADVLQALEDSHGGARGTGSGAGRKEEDRDDASGFFSSHPLTRERIETLRRFDHTHGGSDAD”, the protein production entry was “failed”.
In the case of “MILDEKNRKNLVFLILQFFDEEGYEESLHLLEQDSGVFFDFSYLSNAILNGNWKDADDYLSAFTSPEANTFSRKMFFGLFKSGGSEAVKIFSKDLRRIPVLKDDSFDDLVEVIAETCCVDKAPGRAKLCVDLHKLAESNPSLRGKLDFPSLNKSALLALISLLCPNCSRRKGGLKEDLICLILQFLYEAKYKNTLHKLEQETKVFFNLNYLAEVMKLGEYGKAEEYLGAFTNWEDNKYSKAMFLELQKLICLQSTEWEVATPSGSLDNMSLKIKLHASVAMLAKKNPVLKDELKFPSMEKSRLLTLVKQTMDWWTCNNTSSLENVPVVSYLCGTPSSMKFFFKKTVPRKKKPNEIKDPSQCNALVLPDCFSEEKIARLTYSPSGDYILALAEDATHKLWTWSSSQNEFCKPRLHQPQSGKTMENEMATSVQKSTSCFAVKGSYLFSTSGGKIAVFDLKNFEKVASFGSPTPMATYFIFIPGDLLAVGLDDGSIFIHCLSSRKVKEKLEGHDQKITCLAFSRCFNVLVSSDSDGKLCLWSTKSWVKLTSKNSTRKFCNRSNLESTSLVTHIQFDPYQIELLVVHDGWIGLYEVRTLDCRLQWIPDASDPAITSATYSSDGEIIYVGFRCGSIKIVDSKTFMTLCQINLTSFTQLSTSNISLEVYPTVVAAHPSHPNQISAGLSNGKVIVLQPLWSGGWGEAAPLEDNGDYSNDSDHSY” it was “failed”; in that of “MILIRLEPGMDLMEEMRAAFSEGVVVTGIGSLHRVRIRTADESELTVEGPLEILSLQGTISPDGVHIHIAVADSEGRVTGGHLRGDSPVRTTAEIAVIPYQGVLRRVMDRRTGYRELLVLE”, “failed”.
Turning to “MILKTLRNIFITIVVIAIIVIGGLFGLNAYSNQHPNNHSINDWNKLNPLAPTYEYYVKTQKPSKVEVVDKEKDFYIYHYNQTGYTKDGKSKKIEYTASKKLKQNHYLVVREKSHTIQSFEEVKKSKIPTKAKEKL”, the protein production result is recorded as “failed”.
As for “MILLSVHDSFLLDHNLPSACDKVFERLLDVTNSSFGFIATLQEDEDGQSLYLPAISNLAWDEETLTWYRHQRRTHGGLRLRKLDNLFGHVVTHNTVVCTNSLLRQKAGRDLPPIHPALHSLLGIPITHNGKTVGMIALANRREGYDQTMIELEHHHHHH”, the protein production result is on record as “failed”.
With “MILLTKITLLLFSSIFFSYILYMKSHSFKKIEPRKCSLNLMIIGMAFIVVGEFLNFISSFVKYRVDIYVSFCFILGAILFVIFAIIFLNSVDNTLKCLYGCVYEDAMTGVYNRNGIKKIFKDTINKEDNFFVMSFDLDETKIINDNFGHLVGDEYIISAARAIKEVLGAKGVVGRTGGDEFAAIYISTDQEELKKVKTHINKRASEIFNGSNINISMGFSTYKKDGKNMKELFDLADKRMYQDKKNKRKADQRF” the entry was “failed”; with “MILMSNEIKNPKKRRKLVEYANGRSLEEINGTVKVPKNIGFWKALFMYSGPGALVAVGYMDPGNWSTSITGGQNFQYMLMSIILISSLIAMLLQYMAAKLGIVSQMDLAQAIRARTSKSLGIVLWILTELAIMATDIAEVIGAAIALYLLFHIPLAIAVFITVLDVLLLLLLTKIGFRKIEAIVVCLIMVILVVFVYQVALSNPNWGAVFSGLVPTTKAFETSPTIGGMTPLSGSLGIIGATVMPHNLYLHSAVSQTREIDHNDEEDVARTLRFSTWDSNIQLSFAFIVNSLLLVMGVAVFKSGAVQDPSFFGLFHALNDTSTLSNGILIGVAKTGVLSTLFAVALLASGQNSTITGTLTGQVIMEGFIHMRMPLWARRLITRLISVVPVLICVMITSGKGDLQEHEALNQLMNNSQVFLAFALPFSMIPLLMMTDSRVEMGDRFKNSWAVKILGWISVIFLTYLNMTGLPNSITAFFGANPSAGEVELAHIIAYMLVAVVLALLAWTVFELHKGNQRYELEMRSKAEAKEEA”, “failed”; with “MILNPQQRTKLDSRRDDLFYAAPRFVTHVDDFFLARLTDLYRQYLQPQMRVLDLMSSWVSHLPPELSFQEVVGHGMNAAELARNPRLDRYFVQNLNEELALPLEDASFNAVLMAVSVQYLQYPEATFTEIARILKPQGVVIVSFSNRMFFEKAIQAWREGSEGDRVQLVQTYINSTPSLKVIATHLPRLWPWRGFTDPFYAVVGQKQAVLEHHHHHH”, “not failed”.
In the case of “MILNTEEYPISIGNEIKYTKEVYDCLQLLRLRTILKEYEVNLILDVGANEGQFASVLRDIGYVGTIISFEPLSKEYRLLSQAASKDSNWYTYNLALGKQNKEQILHVSDKSTFSSFLLSNSLCEQRFGKESIGDKNEVVSVRRLDNFLVEVVKNIDKMRIYLKMDTQGYDLEVFSGAGTLLKNIVALQSEVSVVPIYHSMPDMLYSISLFQEAGFSLSGMYPVTYVKPTLQVIEFDCLMVKADTKIS” it was “failed”; in that of “MILNVAGPLGNPAPMEKFGKILAIGAYVGIAEVYPIAKAWQEIGNDVTTLHVTFEPMVILKDYFEKAVSRHIVEPVKIDQEKSFQENTKNVTKALTAKVKELLDNENWDLVFMVGPPGDQKAVFEVVKKYGIPMKVDLHPIMLEHHHHHH”, “not failed”.
In the case of “MILPPAFHAALLSGGNGRESKLPWVALGLAWLLAVLALLGPSWQRVEQTSQKPADPLVVLLELTPQMLANDVPPDRLEQARHKLLDLLQLRSDAQTAIVVYAGSAHTLVPLSDDLATSRNLLDALKPSIMPQAGQRADLALLKALKLLDQGALGQGRVLLMASSLNEEERQGIRQALKGDAPQLLMLGFGSRDGAPVAQEDGSYLKDDQGAILVSRLDSPDLKHFIGDVGGRYRQARLDDSDLRGLGLLGGPQGLRSDGQTLRLDTWADQGYWLLLPLLLLAACAGRRGWLFCLPLLLFAVPQPSYAFDFNDLWLRPDQQGQRLLQQQRPAEAARHFQDPQWQGVALYEAGNYTAAAERFAEGNDARAHYNRGNALARSGELEAAIDAYEQALERQPDLQPALQNKALVESLLQQQQAQTQTPPPAKKPDTPEGDDTRPGPSGAATQPPPGSNGPQDPAQAPANEGDTPPPDPQAAGHSEVPGSELDDQHTTTPLRPVEDSLDAEHQQALEQWLRKIPDDPGELLRRKFWYEQQQHQDQGKTR” it was “failed”; in that of “MILQNKTFDLNPNDIAGLELVCQTLRNRILEVVSANGGHLSSSLGAVELIVGMHALFDCQKNPFIFDTSHQAYAHKLLTGRFESFSTLRQFKGLSGFTKPSESAYDYFIAGHSSTSVSIGVGVAKAFCLKQALGMPIALLGDGSISAGIFYEALNELGDRKYPMIMILNDNEMSISTPIGALSKALSQLMKGPFYQSFRSKVKKILSTLPESVNYLASRFEESFKLITPGVFFEELGINYIGPINGHDLSAIIETLKLAKELKEPVLIHAQTLKGKGYKIAEGRYEKWHGVGPFDLDTGLSKKSKSAILSPTEAYSNTLLELAKKDEKIVGVTAAMPSGTGLDKLIDAYPLRFFDVAIAEQHALTSSSAMAKEGFKPFVSIYSTFLQRAYDSIVHDACISSLPIKLAIDRAGIVGEDGETHQGLLDVSYLRSIPNMVIFAPRDNETLKNAVRFANEHDSSPCAFRYPRGSFALKEGVFEPSGFVLGQSELLKKEGEILLIGYGNGVGRAHLVQLALKEKNIECALLDLRFLKPLDPNLSAIVAPYQKLYVFSDNYKLGGVASAILEFLSEQNILKPVKSFEIIDEFIMHGNTALVEKSLGLDTESLTDAILKDLGQER”, “failed”; in that of “MILSRYIARRFLRMVFIVFLAFFGLMMLIDVLDQMRRFSDEGITLVQAGLLSLLRVPATLYTILPLIVILAAVALFLGLARSSELVVVRAAGRSGLRFLVAPMVVALALGTVAVTVLNPIVAGTSRQYDAAAGRLARGEASILSISKEGLWLRQGGSGEQTVIHALRSNTDGTRLYAVTFLTFDAEGRPTGRIAAEQAALERGYWQLSGAKSWDLTEANPEARAGLPGNLRVTSELTREGIQDSFGDPSAIPIWELPAYVAGLERAGFSARKHRVWMQMEFALPATLAAMVLVAAGFTMRHSRFGGTGRMVLLALLGGFSLFFLRNFAQVLGENGQIPILLAAWSPPLIGVMGSLGLLLHLEDG”, “failed”.
Regarding “MILVTGFEPFGSLEHNPSQALLDLLPSEVDGKPLRKAVLPVDAEALGEALEDLHREGPKAVLHLGLAEDRPVLTLERLAVNLLDFPRPDNRGRVLEDLPIVPGGPLALPARFPVKPVLARWREAGIPGRPSLSAGSYLCNQAFYLSLYRLPEEVPVGFLHLPPDETLALKRPRPYVPLEVQARAVRLALEHL”, the protein production entry is listed as “not failed”.
For the sequence “MIMFNYQQTSQSCVKCGKCIPSCTIYNIHPDEVTSPRGFIDLLGAYQRGELELDKNAKDIFEKCFLCTNCTYVCPNLLPTDQVIENVRAEIAQKFGIAWFKRAYFFLLRNRWLEHHHHHH”, the protein production entry is “failed”.
With “MIMMESGKLDLDRTKEGVKKYWDYGSKFYDTAPGLGGNEESQIWKKLLSSSIGPDLKNILDVGSGTGIIAMYLAELGYGVTAVDFSEGMMDIARKKALEKGAKIRFMEGDIENLSFEDETFDCVTARYVLWTLPHPEKALKEWVRVVKPGGRIVIIDGKWVTRGLLPRISAMNYHIYRFIKYGKNPFTYDYRKEVSVGLPNPHGVEKKQIMEYVSKAGLTDIVVTDLKIIRDIQRKKLPWYLKYANDHPIFMVRGTVAKKG” the entry was “failed”; with “MIMMKRYKKILLTGVLSALSCSFVHAQELYKNENAPVHERVMDLISRLTVEEKISLLRATSPGIPRLGIDKYYHGNEALHGVVRPGRFTVFPQAIGLAATWNPELQKRVATVISDEARARWNELDQGREQKEQFSDVLTFWSPTVNMARDPRWGRTPETYGEDPFLSGIMGTAFVNGLQGDDPHYLKIVSTPKHFAANNEEHNRFVCNPQISEKQLREYYFPAFEMCVKEGKAASIMSAYNALNDVPCTLNPWLLQKVLRQDWGFQGYVVSDCGGPALLVNAHKYVKTKEAAATLSIKAGLDLECGDDVYDGPLLNAYKQYMVSDADIDSAAYHVLTARMKLGLFDSGERNPYTKISPSVIGSKEHQQIALDAARQCVVLLKNQKNRLPLNADKLKSIAVVGINAGKCEFGDYSGAPVVEPVSILQGIRNRVGDRVKVVYAPWKSAADGLELIQGENFPEGLQAEYFDNTRLEGTPRVRKESWINFEPANQAPDPFLPKSPLSVRWTGKLKPTVSGRYTFSFTSDDGCRLSINNQMLIDAWQAHAVSTDSASIYLEAGKEYQLKAEYYDNRDYAIAKLQWKVPQIGKATRLDLYGEAGKAVRECETVVAVMGINKSIEREGQDRYDIQLPADQREFLQEIYKVNPNIIVVLVAGSSLAINWMDEHIPAIVNAWYPGEQGGTAVAEVLFGDYNPAGRLPLTYYKSLDELPPFDDYDITKGRTYKYFKGDVLYPFGYGLSYSSFTYSDLQVKDGGGEVTVSFRLKNTGKRNGDEVAQVYVRIPETGGIVPLKELKGFRRVPLKSGESRRVEIKLDKEQLRYWDVEKGQFVVPKGAFDVMVGASSKDIRLQTVIDL”, “failed”.
